Measured values: patent US20230103563A1 (Sanofi, published 2023)

T1: human IL4 (IL004, Millipore) (human, UniProt P05112 25-153)
T1 construct: Bought protein, used as analyte in SPR; also called interleukin IL4
T1 sequence (looked up): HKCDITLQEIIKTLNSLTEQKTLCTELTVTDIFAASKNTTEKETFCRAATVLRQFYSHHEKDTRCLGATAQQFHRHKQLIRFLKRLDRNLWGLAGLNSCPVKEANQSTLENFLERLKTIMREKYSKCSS


Legend:
[1] = molecular target: T1, human IL4 (IL004, Millipore); experiment: SPR (Biacore), variant captured with Fab-capture kit, IL4 as analyte
Protocol: (§1) Binding of antigens to the antibody constructs was measured using surface plasmon resonance (SPR) on a BIAcore 3000 instrument (GE Healthcare) with HBS-EP buffer (GE Healthcare). As antigens human IL4 (IL004, Millipore) and human IL13 (IL012, Millipore) were used. The capture antibody (human antibody capture kit, His capture kit, Fab capture kit, GE Life Sciences) was immobilized via primary amine groups (11000 RU) on a research grade CMS chip (GE Life Sciences) using standard procedures. […] The antigens human IL4 and human IL13 were used as analytes and injected for 240 sec with a dissociation time of 300 sec at a flow rate of 30 μL/min. IL4 and IL13 were used in a dilution series of 0.1 nM to 3 nM and 0.8 nM to 25 nM, respectively. Chip surfaces were regenerated with 2 min injects of the regeneration buffer provided with the capture kit. Sensorgrams were double referenced with a blank chip surface and HBS-EP buffer blanks. Recombinant human neonatal Fc-receptor (FcRn) protein was immobilized via primary amine groups (200 RU) in the sample flow cell compartment of a research grade CMS chip (GE Life Sciences) using standard procedures. The reference flow cell compartment was activated and deactivated without FcRn immobilization to generate a blank chip surface. For the analysis an assay buffer with pH 6.0 was used (150 mM NaCl, 20 mM Na-phosphate, 0.05% surfactant P20, pH6.0). The antibody was used as analyte at 800 nM dilution in assay buffer and injected over reference and sample flow cells for 240 sec with a dissociation time of 300 sec at a flow rate of 30 μL/min. Chip surfaces were regenerated with 2 min injects of HBS-EP buffer at 30 μl/min. Sensorgrams were double referenced with a the blank chip surface and HBS-EP buffer blanks. All data analysis was done using the BIAevaluation software v4.1.

[2] = molecular target: T1, human IL4 (IL004, Millipore); experiment: SPR (Biacore), variant captured with His-capture kit, IL4 as analyte
Protocol: as §1

[3] = molecular target: T1, human IL4 (IL004, Millipore); experiment: SPR (Biacore 3000), construct captured, IL4 as analyte; summary table
Protocol: as §1

[4] = molecular target: T1, human IL4 (IL004, Millipore); experiment: SPR (Biacore), variant captured with human antibody capture kit, IL4 as analyte
Protocol: as §1

Binder	Ka [1]	Kd [1]	koff [1]	kon [1]	Ka [2]	Kd [2]	koff [2]	kon [2]	Kd [3]	Kd [4]	koff [4]	kon [4]
protein variant (2), DVD-Fab Split CH2 (anti-IL4/anti-IL13) (bispecific antibody, IgG1, Fab-like format with IgG1 split CH2 domain) chain 1: DIVLTQSPASLAVSLGQRATISCRASESVDSYGQSYMHWYQQKAGQPPKLLIYLASNLESGVPARFSGSGSRTDFTLTIDPVQAEDAATYYCQQNAEDSRTFGGGTKLEIKGGGGSGGGGSDIQMTQSPASLSVSVGDTITLTCHASQNIDVWLSWFQQKPGNIPKLLIYKASNLHTGVPSRFSGSGSGTGFTLTISSLQPEDIATYYCQQAHSYPFTFGGGTKLEIKRTVAAPSVFIFPPSDEQLKSGTASVVCLLNNFYPREAKVQWKVDNALQSGNSQESVTEQDSKDSTYSLSSTLTLSKADYEKHKVYACEVTHQGLSSPVTKSFNRGECGGPSVFLFPPKPKDTLMISRTPEVTCVVVDVSHEDPEVKFNWYVDGVEVHN chain 2: EVQLKESGPGLVAPGGSLSITCTVSGFSLTDSSINWVRQPPGKGLEWLGMIWGDGRIDYADALKSRLSISKDSSKSQVFLEMTSLRTDDTATYYCARDGYFPYAMDFWGQGTSVTVSSGGGGSGGGGSQVQLQQSGPELVKPGASVKISCKASGYSFTSYWIHWIKQRPGQGLEWIGMIDPSDGETRLNQRFQGRATLTVDESTSTAYMQLRSPTSEDSAVYYCTRLKEYGNYDSFYFDVWGAGTLVTVSSASTKGPSVFPLAPSSKSTSGGTAALGCLVKDYFPEPVTVSWNSGALTSGVHTFPAVLQSSGLYSLSSVVTVPSSSLGTQTYICNVNHKPSNTKVDKKVEPKSCDKGGGAKTKPREEQYNSTYRVVSVLTVLHQDWLNGKEYKCKVSNKALPAPIEKTISKAKGQPREHHHHHH	5.73e+10 M⁻¹	17.5 pM	0.000259 s⁻¹	1.48e+07 M⁻¹ s⁻¹	3.33e+10 M⁻¹	30 pM	0.000426 s⁻¹	1.42e+07 M⁻¹ s⁻¹	30 pM	–	–	–
protein variant (3), CODV-Fab Split CH2 (anti-IL4/anti-IL13) (bispecific antibody, IgG1, Fab-like cross-over format with IgG1 split CH2 domain) chain 1: DIVLTQSPASLAVSLGQRATISCRASESVDSYGQSYMHWYQQKAGQPPKLLIYLASNLESGVPARFSGSGSRTDFTLTIDPVQAEDAATYYCQQNAEDSRTFGGGTKLEIKGQPKAAPSDIQMTQSPASLSVSVGDTITLTCHASQNIDVWLSWFQQKPGNIPKLLIYKASNLHTGVPSRFSGSGSGTGFTLTISSLQPEDIATYYCQQAHSYPFTFGGGTKLEIKTKGPSVFRTVAAPSVFIFPPSDEQLKSGTASVVCLLNNFYPREAKVQWKVDNALQSGNSQESVTEQDSKDSTYSLSSTLTLSKADYEKHKVYACEVTHQGLSSPVTKSFNRGECGGPSVFLFPPKPKDTLMISRTPEVTCVVVDVSHEDPEVKFNWYVDGVEVHN chain 2: QVQLQQSGPELVKPGASVKISCKASGYSFTSYWIHWIKQRPGQGLEWIGMIDPSDGETRLNQRFQGRATLTVDESTSTAYMQLRSPTSEDSAVYYCTRLKEYGNYDSFYFDVWGAGTLVTVSSSEVQLKESGPGLVAPGGSLSITCTVSGFSLTDSSINWVRQPPGKGLEWLGMIWGDGRIDYADALKSRLSISKDSSKSQVFLEMTSLRTDDTATYYCARDGYFPYAMDFWGQGTSVTVSSASTKGPSVFPLAPSSKSTSGGTAALGCLVKDYFPEPVTVSWNSGALTSGVHTFPAVLQSSGLYSLSSVVTVPSSSLGTQTYICNVNHKPSNTKVDKKVEPKSCDKGGGAKTKPREEQYNSTYRVVSVLTVLHQDWLNGKEYKCKVSNKALPAPIEKTISKAKGQPREHHHHHH	1.83e+11 M⁻¹	5.48 pM	0.000452 s⁻¹	8.26e+07 M⁻¹ s⁻¹	–	–	–	–	5.48 pM	–	–	–

Now from value to binder:

Ka [1]	Kd [1]	koff [1]	kon [1]	Ka [2]	Kd [2]	koff [2]	kon [2]	Kd [3]	Kd [4]	koff [4]	kon [4]	Binder
–	–	–	–	–	–	–	–	1.3 pM	1.3 pM	8.91e-05 s⁻¹	6.84e+07 M⁻¹ s⁻¹	protein variant (11), Split CH2 bivalent bispecific antibody (bispecific antibody, human IgG4 S228P, kappa, Four chains; on one arm CH1 and CL are replaced by the split CH2 domain; heavy chains heterodimerize by knob-into-hole mutations) heavy: EVQLKESGPGLVAPGGSLSITCTVSGFSLTDSSINWVRQPPGKGLEWLGMIWGDGRIDYADALKSRLSISKDSSKSQVFLEMTSLRTDDTATYYCARDGYFPYAMDFWGQGTSVTVSSASTKGPSVFPLAPCSRSTSESTAALGCLVKDYFPEPVTVSWNSGALTSGVHTFPAVLQSSGLYSLSSVVTVPSSSLGTKTYTCNVDHKPSNTKVDKRVESKYGPPCPPCPAPEFEGGPSVFLFPPKPKDTLMISRTPEVTCVVVDVSQEDPEVQFNWYVDGVEVHNAKTKPREEQFNSTYRVVSVLTVLHQDWLNGKEYKCKVSNKGLPSSIEKTISKAKGQPREPQVCTLPPSRDELTKNQVSLSCAVKGFYPSDIAVEWESNGQPENNYKTTPPVLDSDGSFFLVSKLTVDKSRWQQGNVFSCSVMHEALHNRFTQKSLSLSPG light: not shown chain 1: QVQLQQSGPELVKPGASVKISCKASGYSFTSYWIHWIKQRPGQGLEWIGMIDPSDGETRLNQRFQGRATLTVDESTSTAYMQLRSPTSEDSAVYYCTRLKEYGNYDSFYFDVWGAGTLVTVSSGGGGGSGGGGGSAKTKPREEQYNSTYRVVSVLTVLHQDWLNGKEYKCKVSNKALPAPIEKTISKAKGQPREGGGSGSAESKYGPPCPPCPAPEFEGGPSVFLFPPKPKDTLMISRTPEVTCVVVDVSQEDPEVQFNWYVDGVEVHNAKTKPREEQFNSTYRVVSVLTVLHQDWLNGKEYKCKVSNKGLPSSIEKTISKAKGQPREPQVYTLPPCRDELTKNQVSLWCLVKGFYPSDIAVEWESNGQPENNYKTTPPVLDSDGSFFLYSKLTVDKSRWQQGNVFSCSVMHEALHNHYTQKSLSLSPG chain 2: DIQMTQSPASLSVSVGDTITLTCHASQNIDVWLSWFQQKPGNIPKLLIYKASNLHTGVPSRFSGSGSGTGFTLTISSLQPEDIATYYCQQAHSYPFTFGGGTKLEIKGGGGPSVFLFPPKPKDTLMISRTPEVTCVVVDVSHEDPEVKFNWYVDGVEVHN
–	–	–	–	–	–	–	–	0.922 pM	0.922 pM	–	–	protein variant (12), Split CH2 bivalent bispecific antibody (bispecific antibody, human IgG4 S228P, kappa, Four chains; on one arm CH1 and CL are replaced by the split CH2 domain; heavy chains heterodimerize by knob-into-hole mutations) heavy: EVQLKESGPGLVAPGGSLSITCTVSGFSLTDSSINWVRQPPGKGLEWLGMIWGDGRIDYADALKSRLSISKDSSKSQVFLEMTSLRTDDTATYYCARDGYFPYAMDFWGQGTSVTVSSASTKGPSVFPLAPCSRSTSESTAALGCLVKDYFPEPVTVSWNSGALTSGVHTFPAVLQSSGLYSLSSVVTVPSSSLGTKTYTCNVDHKPSNTKVDKRVESKYGPPCPPCPAPEFEGGPSVFLFPPKPKDTLMISRTPEVTCVVVDVSQEDPEVQFNWYVDGVEVHNAKTKPREEQFNSTYRVVSVLTVLHQDWLNGKEYKCKVSNKGLPSSIEKTISKAKGQPREPQVCTLPPSRDELTKNQVSLSCAVKGFYPSDIAVEWESNGQPENNYKTTPPVLDSDGSFFLVSKLTVDKSRWQQGNVFSCSVMHEALHNRFTQKSLSLSPG light: not shown chain 1: DIQMTQSPASLSVSVGDTITLTCHASQNIDVWLSWFQQKPGNIPKLLIYKASNLHTGVPSRFSGSGSGTGFTLTISSLQPEDIATYYCQQAHSYPFTFGGGTKLEIKGGGGGSGGGGGSAKTKPREEQYNSTYRVVSVLTVLHQDWLNGKEYKCKVSNKALPAPIEKTISKAKGQPREGGGSGSAESKYGPPCPPCPAPEFEGGPSVFLFPPKPKDTLMISRTPEVTCVVVDVSQEDPEVQFNWYVDGVEVHNAKTKPREEQFNSTYRVVSVLTVLHQDWLNGKEYKCKVSNKGLPSSIEKTISKAKGQPREPQVYTLPPCRDELTKNQVSLWCLVKGFYPSDIAVEWESNGQPENNYKTTPPVLDSDGSFFLYSKLTVDKSRWQQGNVFSCSVMHEALHNHYTQKSLSLSPG chain 2: QVQLQQSGPELVKPGASVKISCKASGYSFTSYWIHWIKQRPGQGLEWIGMIDPSDGETRLNQRFQGRATLTVDESTSTAYMQLRSPTSEDSAVYYCTRLKEYGNYDSFYFDVWGAGTLVTVSSGGGGPSVFLFPPKPKDTLMISRTPEVTCVVVDVSHEDPEVKFNWYVDGVEVHN
